Test results from patent US20220073621A1.

How the values were obtained:
[1] = target: human-mouse chimeric PD-L1 on CHO cells (human-mouse chimeric); assay: flow cytometry, CHO-cPD-L1 cells, Anti-human IgG Fc-FITC
[2] = target: Mouse PD-L1 on CHO cells (mouse) (UniProt Q9EP73); assay: flow cytometry, CHO-mPD-L1 cells, Anti-mouse-IgGFc-FITC
[3] = target: Rhesus monkey PD-L1 on CHO cells (rhesus monkey); assay: flow cytometry, CHO-rPD-L1 cells, Anti-human IgG Fc-FITC
[4] = target: Rhesus monkey PD-L1 on CHO cells (rhesus monkey); assay: flow cytometry, CHO-rmPD-L1 cells, Anti-mouse-IgGFc-FITC
[5] = target: Mouse PD-L1 on CHO cells (mouse) (UniProt Q9EP73); assay: flow cytometry, CHO-mPD-L1 cells, Anti-human IgG Fc-FITC

Chain of Rhesus monkey PD-L1 on CHO cells (rhesus monkey) (Q9NZQ7 other isoform, or with tags, fused parts or gaps limits assumed): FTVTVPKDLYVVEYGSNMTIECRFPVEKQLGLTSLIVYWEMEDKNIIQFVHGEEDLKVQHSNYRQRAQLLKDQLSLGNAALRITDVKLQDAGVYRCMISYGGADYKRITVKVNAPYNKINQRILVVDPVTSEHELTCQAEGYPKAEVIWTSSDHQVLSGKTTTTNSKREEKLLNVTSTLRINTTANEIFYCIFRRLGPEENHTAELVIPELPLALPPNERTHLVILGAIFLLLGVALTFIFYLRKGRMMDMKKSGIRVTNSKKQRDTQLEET
Chain of Mouse PD-L1 on CHO cells (mouse) (Q9EP73 19-290 limits assumed): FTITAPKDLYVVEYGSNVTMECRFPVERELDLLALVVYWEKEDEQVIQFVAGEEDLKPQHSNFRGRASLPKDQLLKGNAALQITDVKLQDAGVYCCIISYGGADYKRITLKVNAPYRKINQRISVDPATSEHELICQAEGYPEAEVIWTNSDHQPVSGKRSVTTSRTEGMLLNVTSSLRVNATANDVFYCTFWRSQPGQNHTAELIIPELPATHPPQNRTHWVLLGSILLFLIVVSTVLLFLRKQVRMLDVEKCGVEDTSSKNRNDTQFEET
Chain of human-mouse chimeric PD-L1 on CHO cells (human-mouse chimeric) (Q9EP73 other isoform, or with tags, fused parts or gaps mutant limits assumed): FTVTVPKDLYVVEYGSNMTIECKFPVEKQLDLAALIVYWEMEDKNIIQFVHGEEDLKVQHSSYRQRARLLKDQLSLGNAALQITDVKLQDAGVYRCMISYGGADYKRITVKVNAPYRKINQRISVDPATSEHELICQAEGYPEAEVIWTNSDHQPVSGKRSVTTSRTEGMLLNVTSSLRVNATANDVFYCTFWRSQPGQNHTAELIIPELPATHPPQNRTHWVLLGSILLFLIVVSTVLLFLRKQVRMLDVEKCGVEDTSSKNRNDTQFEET

- % cells in the FITC-positive gate [1]: 0.779%
- % cells in the FITC-positive gate [2]: 5.52%
- % cells in the FITC-positive gate [3]: 2.74%
- % cells in the FITC-positive gate [4]: 1.13%
- % cells in the FITC-positive gate [5]: 0.681%
Substance: NC
